Positions count from the first letter of the chain named. Several values for one entry are separate records, joined by “and”; a condition that tells them apart may be missing. Equal values may be shown once. Values belong to the binder of their own block, whether it stands above or below them.
Tests used:
[1] = target: T1, biotinylated Human Activin A (human, UniProt P03970 309-424 (pig entry), biotinylated (EZ-Link Sulfo-NHS-Biotinylation Kit)); experiment: SPR (Biacore 8K), antigen captured, Fab analyte
T1 sequence: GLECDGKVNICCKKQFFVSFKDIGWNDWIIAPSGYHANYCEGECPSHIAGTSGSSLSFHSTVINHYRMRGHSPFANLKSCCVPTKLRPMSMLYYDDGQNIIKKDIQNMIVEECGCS
Method: Kinetic analysis was conducted at 25° C. in HBS-EP+ running buffer (10 mM HEPES pH 7.4, 150 mM NaCl, 3 mM EDTA, 0.05% Surfactant P20) using a Biacore 8K optical biosensor (Cytiva, Marlborough, MA). The sample compartment was maintained at 10° C. for the duration of the experiment. The Biacore 8K can analyze up to 8 separate interactions in a single cycle.
Each experiment cycle began with an injection (300 s at 2 μL/min) overflow cells 1 and 2 of a 1:100 solution of biotin CAPture reagent (Cytiva) in running buffer. This was followed by an injection (45 s at 10.0 μL/min) of biotinylated human ACTIVIN A (5 nM) overflow cell 2. Upon capture of ACTIVIN A to the sensor surface, a single concentration of Fab ranging from 0.111-81.0 nM was injected (300 s at 30 μL/min) overflow cells 1 and 2. The dissociation of the antibodies were monitored for 3420 s. Finally, an injection (120 s at 10 μL/min) of regeneration solution (6 M Guanidine-HCl in 0.25 M NaOH) overflow cells 1 and 2 prepared the sensor surface for another cycle. Several blank buffer samples were injected (300 s at 30 μL/min) overflow cells 1 and 2 throughout the duration of the experiment and used for reference surface subtraction—each were monitored for the same amount of dissociation time (3420 s) and regenerated under the same conditions as those for the Fab sample injections.
The anti-Activin antibodies identified in Example 1 were characterized. First, binding kinetics of the anti-Activin antibodies was assessed with a Surface Plasmon Resonance assay (Biacore).

Human Activin A Fc = target: T2, Human Activin A Fc (human, UniProt P03970 309-424 (pig entry)); experiment: Octet BLI, Fab, monovalent
T2 construct: also called human Activin A-Fc fusion; human Activin A-Fc antigen; not shown: Fc part
T2 sequence: T1 sequence

Kd (Human Activin A Fc): 2.9 nM
B2: Fab of anti-Activin A antibody Clone R (Fab, V domains shown)
VH: QVQLVQSGAEVKKPGSSVKVSCKASGGSFSPYTISWVRQAPGQGLEWMGGIILTSGTANYAQKFQGRVTITADESTSTAYMELSSLRSEDTAVYYCARGGPLSGWRASYYYWGQGTLVTVSS
VL: not shown
notes: Fab format; only VH and VL are tied to the clone; also called Clone R Fab

Kd (Human Activin A Fc): 4.85 nM
B4: Fab of anti-Activin A antibody Clone N (Fab, V domains shown)
VH: QLQLQESGPGLVKPSETLSLTCTVSGGSISSSDYYWGWIRQPPGKGLEWIGSIYYPASTYYNPSLKSRVTISVDTSKNQFSLKLSSVTAADTAVYYCARGYWNYGMDVWGQGTTVTVSS
VL: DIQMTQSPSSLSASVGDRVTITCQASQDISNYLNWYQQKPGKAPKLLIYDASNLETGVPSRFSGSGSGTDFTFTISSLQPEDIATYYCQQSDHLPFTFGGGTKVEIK
notes: Fab format; only VH and VL are tied to the clone; also called Clone N Fab

Kd [1]: 0.0367 nM
koff [1]: 0.000119 s⁻¹
kon [1]: 3.25e+06 M⁻¹ s⁻¹
Kd (Human Activin A Fc): 0.925 nM
B5: Fab of anti-Activin A antibody Clone K (Fab, V domains shown)
VH: QVQLVQSGAEVKKPGSSVKVSCKASGGTSSSYAISWVRQAPGQGLEWMGYIIPAFGTANYAQKFQGRVTITADESTSTAYMELSSLRSEDTAVYYCARPVRTYPLGKYFYHWGQGTLVTVSS
VL: EIVLTQSPATLSLSPGERATLSCRASQSVSSYLAWYQQKPGQAPRLLIYDASNRATGIPARFSGSGSGTDFTLTISSLEPEDFAVYYCQQDSIFPPYTFGGGTKVEIK
notes: Fab format; only VH and VL are tied to the clone; also called Clone K Fab

Kd [1]: 0.118 nM
B13: Fab of anti-Activin A antibody Clone J (Fab, V domains shown)
VH: EVQLVQSGAEVKKPGSSVKVSCKASGGTFSLYAISWVRQAPGQGLEWMGGIIPYFGTANYAQKFQGRVTITADESTSTAYMELSSLRSEDTAVYYCARGGSGYSTSWGSSLYWGQGTLVTVSS
VL: EIVLTQSPGTLSLSPGERATLSCRASQSVSSSYLAWYQQKPGQAPRLLIYGAFSRATGIPDRFSGSGSGTDFTLTISRLEPEDFAVYYCQQSGVFPYTFGGGTKVEIK
notes: Fab format; only VH and VL are tied to the clone; also called Clone J Fab

Kd (Human Activin A Fc): 4.14 nM
B15: Fab of anti-Activin A antibody Clone L (Fab, V domains shown)
VH: QVQLQESGPGLVKPSETLSLTCAVSGYSISSGYYWGWIRQPPGKGLEWIGSIYHSGSTYYNPSLKSRVTISVDTSKNQFSLKLSSVTAADTAVYYCAREAGSGYWYLSVYGMDVWGQGTTVTVSS
VL: EIVLTQSPATLSVSPGERATLSCRASQSVSSNLAWYQQKPGQAPRLLIYGASTRATGIPARFSGSGSGTEFTLTISSLQSEDFAVYYCQQSDDWPWTFGGGTKVEIK
notes: Fab format; only VH and VL are tied to the clone; also called Clone L Fab

Kd (Human Activin A Fc): 1.92 nM
B16: Fab of anti-Activin A antibody Clone O (Fab, V domains shown)
VH: QVQLVQSGAEVKKPGSSVKVSCKASGGTFSNYDINWVRQAPGQGLEWMGGIIPVFGTAAYAQKFQGRVTITADESTSTAYMELSSLRSEDTAVYYCAREARDGYRYAFQHWGQGTLVTVSS
VL: B15 VL with L4M, S91Y, D92N, D93N, W96I
notes: Fab format; only VH and VL are tied to the clone; also called Clone O Fab

Kd (Human Activin A Fc): 1.53 nM
B17: Fab of anti-Activin A antibody Clone P (Fab, V domains shown)
VH: QVQLVQSGAEVKKPGSSVKVSCKASGGTFDDYAISWVRQAPGQGLEWMGGIIPRFGIANYAQKFQGRVTITADESTSTAYMELSSLRSEDTAVYYCARPPSSGSDWGQGTLVTVSS
VL: DIQMTQSPSSVSASVGDRVTITCRASQGIDSWLAWYQQKPGKAPKLLIYAASSLQSGVPSRFSGSGSGTDFTLTISSLQPEDFATYYCQQVHSFPITFGGGTKVEIK
notes: Fab format; only VH and VL are tied to the clone; also called Clone P Fab

The next lines start with the binder.

B1: Fab of anti-Activin A antibody Clone Q (Fab, V domains shown)
VH: B2 VH with I34W, L53P, T54I, Y60T
VL: not shown
notes: Fab format; only VH and VL are tied to the clone; also called Clone Q Fab
Kd [1]: 0.24 nM
koff [1]: 0.000175 s⁻¹
kon [1]: 728000 M⁻¹ s⁻¹
Kd (Human Activin A Fc): 1.75 nM

B3: Fab of anti-Activin A antibody Clone M (Fab, V domains shown)
VH: B4 VH with S58N
VL: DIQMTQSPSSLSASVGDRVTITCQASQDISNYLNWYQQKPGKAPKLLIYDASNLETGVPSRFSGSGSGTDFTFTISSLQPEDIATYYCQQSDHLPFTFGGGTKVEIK
notes: Fab format; only VH and VL are tied to the clone; also called Clone M Fab
Kd (Human Activin A Fc): 4.53 nM

B6: Fab of anti-Activin A antibody Clone C (Fab, V domains shown)
VH: QVQLVQSGAEVKKPGASVKVSCKASGYTFPGYHMHWVRQAPGQGLEWMGVINPSSGDTNYAQKFQGRVTMTRDTSISTAYMELSRLRSDDTAVYYCARARDIAALGLGAFDYWGQGTLVTVSS
VL: B13 VL with F53S, T57G, S92Y, G93V, V94A, F95Y, Y97R
notes: Fab format; only VH and VL are tied to the clone; also called Fab of Clone C
Kd [1]: 0.0334 nM and 0.0179 nM
koff [1]: 4.52e-05 s⁻¹ and 2.74e-05 s⁻¹
Kd (Human Activin A Fc): 0.229 nM

B7: Fab of anti-Activin A antibody Clone G (Fab, V domains shown)
VH: QVQLVQSGAEVKKPGASVKVSCKASGYTFTSYYIHWVRQAPGQGLEWMGAIYAYSGDTNYAQKLQGRVTMTTDTSTSTAYMELRSLRSDDTAVYYCARARDIAAAGLGAFDYWGQGTLVTVSS
VL: B13 VL with S30R, F53S, S92Y, G93S, V94N, F95Y, Y97R
notes: Fab format; only VH and VL are tied to the clone; also called Clone G Fab
Kd [1]: 0.0849 nM
koff [1]: 0.000124 s⁻¹
kon [1]: 1.46e+06 M⁻¹ s⁻¹
Kd (Human Activin A Fc): 1.09 nM

B8: Fab of anti-Activin A antibody Clone A (Fab, V domains shown)
VH: B7 VH with S31G, I34M, A50S, Y52N, A53P, Y54S, D57G, L64F
VL: B13 VL with S30R, F53S, S92Y, G93V, V94S, F95Y, Y97R
notes: Fab format; only VH and VL are tied to the clone; also called Clone A Fab
Kd (Human Activin A Fc): 2.02 nM

B9: Fab of anti-Activin A antibody Clone I (Fab, V domains shown)
VH: B13 VH with E1Q, L31N, G50Y, Y54F
VL: B13 VL with F53S, S54Y, Q90L
notes: Fab format; only VH and VL are tied to the clone; also called Clone I Fab
Kd [1]: 0.0616 nM
koff [1]: 7.38e-05 s⁻¹
kon [1]: 1.2e+06 M⁻¹ s⁻¹
Kd (Human Activin A Fc): 0.857 nM

B10: Fab of anti-Activin A antibody Clone D (Fab, V domains shown)
VH: B6 VH with P30F, H33S
VL: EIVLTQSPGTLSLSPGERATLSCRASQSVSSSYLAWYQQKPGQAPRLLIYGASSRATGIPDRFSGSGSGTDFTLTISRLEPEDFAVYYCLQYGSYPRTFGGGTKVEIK
notes: Fab format; only VH and VL are tied to the clone; also called Fab of Clone D
Kd [1]: 0.00986 nM and 0.00813 nM
koff [1]: 3.02e-05 s⁻¹ and 2.16e-05 s⁻¹
kon [1]: 3.06e+06 M⁻¹ s⁻¹ and 2.66e+06 M⁻¹ s⁻¹
Kd (Human Activin A Fc): 0.538 nM

B11: Fab of anti-Activin A antibody Clone H (Fab, V domains shown)
VH: B7 VH with S31G, Y33H, A50H, Y52S, D57T
VL: B13 VL with S30R, F53S, S92Y, G93S, V94N, F95Y, Y97R
notes: Fab format; only VH and VL are tied to the clone; also called Clone H Fab
Kd [1]: 0.96 nM
koff [1]: 0.000371 s⁻¹
kon [1]: 386000 M⁻¹ s⁻¹
Kd (Human Activin A Fc): 1.86 nM

B12: Fab of anti-Activin A antibody Clone E (Fab, V domains shown)
VH: B6 VH with P30H, H33N, V50S, S54Y, D57Y, N59I, L105A
VL: B13 VL with S30R, F53S, S92Y, G93V, V94S, F95Y, Y97R
notes: Fab format; only VH and VL are tied to the clone; also called Clone E Fab
Kd [1]: 0.0779 nM
koff [1]: 0.000174 s⁻¹
kon [1]: 2.23e+06 M⁻¹ s⁻¹
Kd (Human Activin A Fc): 0.79 nM

B14: Fab of anti-Activin A antibody Clone F (Fab, V domains shown)
VH: B7 VH with S31G, Y33H, A40V, A50V, Y52S, A105L
VL: B15 VL with T53D, Q89I, S91Y, D92S, D93N, W94Y, W96R
notes: Fab format; only VH and VL are tied to the clone; also called Clone F Fab
Kd [1]: 0.0431 nM
koff [1]: 7.26e-05 s⁻¹
kon [1]: 1.68e+06 M⁻¹ s⁻¹
Kd (Human Activin A Fc): 0.419 nM

From US20260265358A1 (BYOMASS, published 2026)
